PMC4722774, “Characterization of a cold-active esterase from Serratia sp. and improvement of thermostability by directed evolution” (BMC Biotechnology, 2016)

Columns and labels:
[1] = system: T1, CC(=O)Oc1ccc([N+](=O)[O-])cc1; test: purified protein; type: biochemical, Serratia sp. HZ15; details: pH 8.5, 50 mM Tris-HCl, 10 °C, 0.01-0.3 mM substrate
T1 construct: full-length 302 residues, no signal peptide predicted; GST fusion (pGEX-6P-1) in E. coli BL21 (DE3), GST cut off by 3C protease; ~32 kDa

purified protein = substrate: CC(=O)Oc1ccc([N+](=O)[O-])cc1; test: purified protein; type: biochemical, Serratia sp. HZ15; details: pH 8.5, 50 mM Tris-HCl, 10 °C, 0.01-0.3 mM substrate

“EstS (Serratia sp. HZ15; A43V/D147N/R116W)” was tested, and the Km [1] was 87.59 ± 2.4 µM, the kcat [1] was 2500 s⁻¹ and the kcat/Km [1] was 2.86e+07 ± 3.7e+06 M⁻¹ s⁻¹.

B1: EstS (Serratia sp. HZ15) (protein)
chain: MPLDPQIARFLAEAAQAPAPASLSEMREVAHAGLLALQGEAEASGGVRDGWVTADDGRAIAIRAYTPGGATPGEPLPAMLYAHGGGWCLGSLALYDRPCQALANATGRVILSVDYRLAPEYPYPRPLEDVYQALCGVVERADEWGVDVARMAVGGDSAGGNLAAAVALLARDRKGPQIEHQLLLYPALSRAMDTASYKEYAQGYYLTREVMAFCWNTYLGEADKPQDPYAEPLHAPMLQRLPPATILSCEYDPLRDEAELYAKRLQEAGVAVRCERLPGMVHACIHMLGLTPAARVLFDKVG
notes: full-length 302 residues, no signal peptide predicted; GST fusion (pGEX-6P-1) in E. coli BL21 (DE3), GST cut off by 3C protease; ~32 kDa
B1 gave a Km (purified protein) of 74.02 ± 1.9 µM, a kcat (purified protein) of 2340 s⁻¹ and a kcat/Km (purified protein) of 3.16e+07 ± 3.1e+06 M⁻¹ s⁻¹.
